Test results published in patent US11517591B2, “Immunogenic peptides specific to BCMA and TACI antigens” (Dana-Farber Cancer Institute, Inc., priority 2017, dated 2022).

Assays:
tumor cells = experiment: Combination of peptide stimulation/vaccination with immune modulatory drugs, peptide-specific CTL activity; format: cell-based, human; conditions: in combination with XBP1/CD138/CS1 peptide stimulation/vaccination
Description: Even in patients with refractory MINI relapsing after allotransplantation, long-lasting responses have been achieved with the infusion of donor lymphocytes (DLI). These early encouraging results of DLI have provided the framework for evaluation of active-specific immunotherapy approaches to treat MM. […] The success of vaccination depends on selection of the appropriate patient population, targeting antigens expressed selectively on tumor, and utilizing combination approaches to effectively induce and maintain antigen-specific memory anti-tumor immune responses. […] Importantly, these effects were confined primarily to antigen-specific CD45RO^+ memory CTL, with the most robust increases in IFN-γ and granzyme B production and CD8^+ T cell proliferation in response to tumor cells observed mainly within the specific CM subset.

[1] = test system: patients with smoldering MM (SMM); experiment: Clinical trials of XBP1/CD138/CS1 multipeptide vaccine in smoldering MM; format: in vivo, human; conditions: multipeptide vaccine in combination with lenalidomide
Description: Due to the encouraging preclinical results, the XBP1/CD138/CS1 multipeptide vaccine has been evaluated, alone and in combination with lenalidomide, in clinical trials to treat patients with smoldering MM (SMM), as well as in combination with anti-PD1 in clinical trials to treat patients with triple negative breast cancer. […] Although stable disease and responses have been observed in SMM, randomized trials are needed to assess whether time to progression from SMM to active disease can be prolonged by the peptide vaccination.

HLA-A2 molecule [2] = target: T1, HLA-A2 molecule (Homo sapiens, UniProt P04439, D140Y/D185E/D98H/E176V/E277Q/G131W/G231S/I119V/I121R/I166T/I218V/L300P/L318F/N151K/N90K/P208A/P217A/Q86G/Q94H/R138H/R169H/T345S); experiment: HLA-A2 binding affinity assay on peptide-pulsed T2 cells (HLA-A2 up-regulation, flow cytometry MFI); conditions: for HLA-A2 binding affinity of native BCMA peptides: Example 12, six native peptides; for HLA-A2 specificity (up-regulation of HLA-A2 on T2 cells, MFI): native peptides 0-200 μg/ml, overnight, Example 3, FIGS. 2, 3; for HLA-A2 binding affinity, heteroclitic vs native peptide: Example 4, FIGS. 4 and 5; for change in HLA-A2 binding affinity of heteroclitic BCMA peptide compared to native peptide: Example 12, n=3, p<0.05; for HLA-A2 affinity of heteroclitic TACI peptide compared to native peptide: Example 13, peptide doses 50 μg/ml and 100 μg/ml
T1 construct: endogenous in cells; host or cells: T2 cell line (human B and T cell hybrid), provided by Dr. J. Molldrem
Procedure: The listed BCMA peptides were evaluated for HLA-A2-specific binding capacity using the T2 cell line. In the assay, T2 cells were washed, resuspended in serum-free AIM-V medium to a final concentration of 1×10^6 cells/ml and transferred into wells of a 24-well tissue culture plate. The cells were pulsed with different concentrations of respective BCMA peptide (0-200 μg/ml) plus 3 μg/ml human β2-microglobulin (Sigma) and incubated at 37° C., 5% CO2 in humidified air. Following overnight incubation, the cells were washed, stained with mouse anti-human HLA-A2-FITC mAb for 15 minutes at 4° C., washed and analyzed using a FACSort™ flow cytometer with CellQuest™ v2.1 software (Becton Dickinson, San Jose, Calif.). […] Among the BCMA peptides evaluated, “#4. […] (FIG. 2).
(§1) T2 cells were pulsed overnight with various doses of peptide plus β2-microglobulin (3 μg/ml) (Sigma, St Louis, Mo.). Following overnight incubation, the cells were stained with HLA-A2-PE mAb and analyzed using a FACSCanto™ flow cytometer (BD). Peptide/HLA-A2 complex stability was measured on peptide loaded T2 cells at 0, 2, 4, 6 and 14 hours post-brefeldin A treatment by staining with HLA-A2-PE mAb and flow cytometric analysis.
as §1, with “concentrations” for “doses”, “The stability of peptide/HLA-A2” for “Peptide/HLA-A2”, “binding” for “stability”, “treatment followed” for “treatment”

HLA-A2 molecule [3] = target: T1, HLA-A2 molecule; experiment: Peptide/HLA-A2 complex stability on peptide-loaded T2 cells post-brefeldin A; format: binding
Procedure: The native and heteroclitic BCMA and TACI peptides were examined for HLA-A2 binding stability using the T2 cell line. T2 cells were pulsed with the respective peptide. After overnight incubation, the cells were washed to remove unbound peptide; they were evaluated for binding affinity as shown above and stability as following. The cells were incubated with 10 μg/ml Brefeldin A (Sigma) at 37° C. and 5% CO2 for 1 hour to block cell surface expression of newly synthesized HLA-A2 molecules. Peptide/HLA-A2 binding stability was evaluated at 0, 2, 4, 6 and 18 hours post-Brefeldin A treatment. Following the incubation period, the cells were harvested, washed, stained with mouse anti-human HLA-A2-FITC mAb and analyzed by flow cytometry. […] Therefore, the Heteroclitic #4 BCMA72-80 (YLMFLLRKI (SEQ ID NO: 13)) and Heteroclitic #3. TACI154-162 (YLSADQVAL (SEQ ID NO: 16) peptides were selected for further evaluation of their immunogenic potential to generate MM-specific cytotoxic T cells (CTLs).
as §1
as §1, with “concentrations” for “doses”, “The stability of peptide/HLA-A2” for “Peptide/HLA-A2”, “binding” for “stability”, “treatment followed” for “treatment”

[4] = test system: CD3+ T cells obtained from HLA-A2+ donors; experiment: Induction and phenotypic analysis of peptide-specific CTL by repeated peptide stimulation; format: cell-based, human
Procedure: The peptide-specific CTL were generated from different HLA-A2^+ normal donors for the evaluation of the functional activities targeting MM cell lines. To generate the peptide-specific CTL, mature dendritic cells (mDC) generated from the same donor were resuspended in serum-free AIM-V media and pulsed with 50 μg/ml of the Heteroclitic #4 BCMA72-80 (YLMFLLRKI (SEQ ID NO: 13)) peptide or “Heteroclitic #3 TACI154-162 (YLSADQVAL (SEQ ID NO: 16))” peptide, overnight at 37° C., 5% CO2 in humidified air. The peptide-pulsed mDC were washed, counted, irradiated at 10 Gy and used to prime CD3^+ T cells at a 1:20 antigen-presenting cells/peptide-to-CD3^+ T cell ratio in AIM-V media supplemented with 10% human AB serum. […] To maintain the T cells ex vivo, IL-2 (50 U/ml) was added to the cultures two days after the second stimulation. Control T cell cultures were maintained under the same culture conditions in the presence of IL-2 (50 U/ml), but without peptide stimulation. Phenotype of the resulting CTL was evaluated one week after each cycle of peptide stimulation. […] The BCMA peptide-specific CTL cultures contained a higher percentage of CD8^+ T cells (˜80%) upon 4 cycle of peptide stimulation compared to non-peptide stimulated control T cells (˜20%) (FIGS. 8A-8C).
Antigen-specific CTL can be phenotypically identified as activated/memory T cells from naïve T cells by their expression of distinct cell surface antigens. The phenotype of the BCMA-CTL were examined as potential effector cells by analyzing the phenotype of naïve and memory cells. BCMA peptide-specific CTL were generated by repeated stimulation of HLA-A2^+ normal donor's CD3^+ T cells weekly with antigen-presenting cells pulsed with 50 μg/ml heteroclitic BCMA72-80 (YLMFLLRKI (SEQ ID NO: 13)). One week after each peptide stimulation, the resulting CTL were evaluated for their phenotypic profile by flow cytometry.
BCMA peptide-specific CTL (BCMA-CTL) were generated ex vivo by repeated stimulation of CD3^+ T cells obtained from HLA-A2^+ donors with peptide-pulsed antigen-presenting cells (APC). In brief, peptide (50 μg/ml)-pulsed APC were irradiated (10 Gy) and used to stimulate T cells at a 1 APC/peptide: 20 T cell ratio. The T cell cultures were restimulated every 7 days and maintained in AIM-V medium supplemented with 10% human AB serum (BioWhittaker) in the presence of IL-2 (50 units/ml).
Phenotypic characterization was performed on BCMA-CTL after staining with Live/Dead Aqua stain kit and fluorochrome conjugated anti-human mAbs and Tetramer-PE. Alternatively, the MM and breast cancer cell lines were stained with fluorochrome-conjugated BCMA or HLA-A2 mAb. After staining, the cells were washed, fixed in 2% paraformaldehyde, and analyzed by flow cytometry.
TACI peptide-specific CTL (TACI-CTL) were generated ex vivo by repeated stimulation of enriched CD3^+ T cells obtained from HLA-A2^+ donors with peptide-pulsed antigen-presenting cells (APC). In brief, peptide (50 μg/ml)-pulsed APC were irradiated (10 Gy) and used to stimulate T cells at a 1:20 APC/peptide-to-T cell ratio. The T cell cultures were restimulated every 7 days and maintained in AIM-V medium supplemented with 10% human AB serum (BioWhittaker) in the presence of IL-2 (50 units/ml).
Phenotypic characterization was performed on the MM target cells to conform TACI expression. Phenotypic characterization was performed on the TACI-CTL after staining with Live/Dead Aqua stain kit and fluorochrome conjugated anti-human mAbs. After staining, the cells were washed, fixed in 2% paraformaldehyde, and analyzed by flow cytometry.

[5] = after 3 cycles of peptide stimulation
[6] = after 4 cycles of peptide stimulation

In the case of `O=C(CCCCCCNC(=O)c1cnc(N(c2ccccc2)c2ccccc2Cl)nc1)NO` [ACY241], the “peptides-specific CTL activities against tumor cells” value (tumor cells) is reported as “enhanced the peptides-specific CTL activities against tumor cells”.

`Nc1cccc2c1CN(C1CCC(=O)NC1=O)C2=O` (stereo not drawn) [lenalidomide] was tested, and the “CD8+ T cells with tetramer-positivity and IFN-γ production” value [1] was “triggered higher mean fold increases in CD8^+ T cells with tetramer-positivity and IFN-γ production” and the “peptides-specific CTL activities against tumor cells” value (tumor cells) was “enhanced the peptides-specific CTL activities against tumor cells”.

For “AILWTCLGL [BCMA54-62 (AILWTCLGL), native BCMA peptide]”, the “HLA-A2 binding affinity of native BCMA peptides” value (HLA-A2 molecule [2]) was “highest HLA-A2 binding affinity in a dose-dependent manner” and the “HLA-A2 specificity (up-regulation of HLA-A2 on T2 cells, MFI)” value (“HLA-A2 specificity” below) (HLA-A2 molecule [2]) was “second highest level of the specificity”.

With “SQNEYFDSL [BCMA9-17 (SQNEYFDSL), native BCMA peptide]” the “HLA-A2 binding affinity of native BCMA peptides” value (HLA-A2 molecule [2]) was “non-HLA-A2 specific”.

For “TLGLCLCAV [TACI166-174 (TLGLCLCAV), native TACI peptide]”, the “HLA-A2 affinity of native TACI peptides” value (HLA-A2 molecule [2]; Example 13, six native peptides) was “highest level of affinity” and the “HLA-A2 specificity” value (HLA-A2 molecule [2]) was “highest level”.

For “VLMFLLRKI [BCMA72-80 (VLMFLLRKI), native BCMA peptide]”, the “HLA-A2 binding affinity of native BCMA peptides” value (HLA-A2 molecule [2]) was “highest HLA-A2 binding affinity in a dose-dependent manner” and the “HLA-A2 specificity” value (HLA-A2 molecule [2]) was “highest level of HLA-A2 specificity”.

In the case of “YILWTCLGL [heteroclitic hBCMA54-62, heteroclitic BCMA peptide]”, the “HLA-A2 binding affinity, heteroclitic vs native peptide” value (HLA-A2 molecule [2]) is reported as “increased from their native peptide”, the “change in HLA-A2 binding affinity of heteroclitic BCMA peptide compared to native peptide” value (HLA-A2 molecule [2]) is reported as “highest increase in HLA-A2 binding affinity” and the “HLA-A2 stability of heteroclitic vs native BCMA peptide” value (HLA-A2 molecule [3]; Example 12) is reported as “further enhanced”.

“YLGLCLCAV [heteroclitic TACI166-174, heteroclitic TACI peptide]” was tested, and the “HLA-A2 affinity of heteroclitic TACI peptide compared to native peptide” value (“HLA-A2 affinity … compared to native peptide” below) (HLA-A2 molecule [2]) was “no significant improvement in HLA-A2 affinity”.

In the case of “YLSADQVAL [heteroclitic TACI154-162, heteroclitic TACI peptide]”, the “CM CD8+ T cells” value [4, 5] is reported as 47.8%, the “EM CD8+ T cells” value [4, 5] is reported as 52.4% and the “Naïve CD8+ T cells” value [4, 5] is reported as 2.2%. The “CM CD8+ T cells” value [4, 6] was 24.4%, the “EM CD8+ T cells” value [4, 6] was 74.1% and the “Naïve CD8+ T cells” value [4, 6] was 0.72%. For the same molecule, the “frequency of effector memory (CD45RO+/CCR7-) CD3+CD8+ T cells” value [4, 6] was “increased”, the “CM CD8+ T cells” value ([4]; after 5 cycles of stimulation) was 7.36% and the “EM CD8+ T cells” value ([4]; after 5 cycles of stimulation) was 69.7%. For the same molecule, the “Naïve CD8+ T cells” value ([4]; after 5 cycles of stimulation) was 0.57%, the “HLA-A2 binding affinity, heteroclitic vs native peptide” value (HLA-A2 molecule [2]) was “increased from their native peptide” and the “HLA-A2 affinity … compared to native peptide” value (HLA-A2 molecule [2]) was “greatly enhanced affinity from its native form”. For the same molecule, the “HLA-A2 binding stability, heteroclitic vs native peptide” value (HLA-A2 molecule [3]; 50 ug/ml, 0, 2, 4, 6 and 18 hours post-Brefeldin A, Example 4, FIGS. 6 and 7) was “significant improvement in their HLA-A2 affinity at all the time points evaluated” and the “HLA-A2 binding affinity (time=0) and stability compared to native peptide” value (HLA-A2 molecule [3]; TACI peptides 50 μg/ml, 2, 4, 6 and 18 hours) was “highest HLA-A2 binding affinity (time=0) and stability (2, 4, 6 and 18 hours)”.

“YLVAVACFL [heteroclitic TACI178-186, heteroclitic TACI peptide]” was tested, and the “HLA-A2 affinity … compared to native peptide” value (HLA-A2 molecule [2]) was “no significant improvement in HLA-A2 affinity”.

With “YQNEYFDSL [heteroclite BCMA9-17, heteroclitic BCMA peptide]” the “change in HLA-A2 binding affinity of heteroclitic BCMA peptide compared to native peptide” value (HLA-A2 molecule [2]) was “did not alter its HLA-A2 affinity status”.
